Source: doi:10.1101/2024.01.22.576614
Where two headings read alike, the source gives them in different places.

Legend:
Test in all cases: two-hybrid
Leu zipper (Zip) [1] = molecular target: Leu zipper (Zip)
Leu zipper (Zip) [2] = molecular target: Leu zipper (Zip); remark: listed apart in the source
[3] = molecular target: cAMP-binding transcriptional regulator Clr (Sinorhizobium meliloti)

Leu zipper (Zip), sequence (P03069 whole entry, the tested form may be a part): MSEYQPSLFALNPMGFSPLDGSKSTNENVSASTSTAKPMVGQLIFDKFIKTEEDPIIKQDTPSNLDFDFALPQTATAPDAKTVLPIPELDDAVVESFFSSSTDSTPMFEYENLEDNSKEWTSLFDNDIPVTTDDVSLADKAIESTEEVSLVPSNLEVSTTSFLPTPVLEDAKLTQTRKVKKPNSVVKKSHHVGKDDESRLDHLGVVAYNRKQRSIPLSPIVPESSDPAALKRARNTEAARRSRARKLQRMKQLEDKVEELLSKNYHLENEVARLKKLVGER

Row | Substance | BACTH β-galactosidase activity (Leu zipper (Zip) [1]) [Miller-Units] | BACTH β-galactosidase activity (Leu zipper (Zip) [2]) [Miller-Units] | BACTH β-galactosidase activity [3] [MU]
1 | Leu zipper (Zip) (domain or fragment) | 1640 | 1370 | 
2 | LysR-type transcriptional regulator Smc01817 (natural protein) |  |  | 460
